The target of assay [1] is F-actin (rabbit) (UniProt P68135).
Assay [2] has the same target. The source holds these as a separate data set.
Assay [3] shares this target. This is another data set of the same source.
For assay [4] the target is unchanged. This is another data set of the same source.
The target of assay [5] is Regulated thin filaments (TRITC-actin with skeletal tropomyosin and troponin) (rabbit | not stated) (UniProt P68135).
The target of assay [6] is F-actin (rabbit) (UniProt P68135). This is another data set of the same source.

As to “Skeletal muscle myosin (from UniProt Q28641 1-1938) (complex)”, in assay [1], the KM: N at half-maximal V(N), in vitro motility assay, control without (-)-blebbistatin (Figure 2D) was found to be 16.1; the KM: N at half-maximal V(N), in vitro motility assay, with 10 μM (-)-blebbistatin (Figure 2D) was found to be 13.3; the KM: N at half-maximal V(N), in vitro motility assay, with 50 μM (-)-blebbistatin (Figure 2D) is 6.4. In assay [2], this substance registered an actin activation of the ATPase activity of surface-bound myosin at low N in a motility flow cell (0.15 μM actin, Figure 3) of 4 fold. Besides, in assay [3], the inhibition of actin-activated ATPase activity (N = 5, 1.0 μM actin; v from 0.59 to 0.26 μM Pi/min) by the load of 1.0 μg/ml α-actinin on the motility surface stood at 55%. For the same substance, in assay [4], the KM for F(N): N at half-maximal V(N) against a mechanical load of 0.5 μg/ml α-actinin on the motility surface was 16; the KM for F(N): N at half-maximal V(N) against a mechanical load of 1.0 μg/ml α-actinin on the motility surface came to 38; the KM for V: N (myosin per μm actin; N equals μg/ml myosin incubated) at half-maximal actin sliding velocity V(N), in vitro motility assay, 50 mM KCl, 30 °C was 16; the KM for V: N at half-maximal actin sliding velocity V(N), in vitro motility assay, 100 mM KCl, 30 °C came out at 17. Besides, in assay [4], the KM for v: N at half-maximal actin-activated ATPase activity v(N), measured in a motility flow cell, 50 mM KCl, 30 °C was 46 and the KM for v: N at half-maximal actin-activated ATPase activity v(N), measured in a motility flow cell, 100 mM KCl, 30 °C was 23. In assay [5], this substance had a pseudo KM for pCa50: half the N at which the pCa50 of thin filament sliding velocity saturates, in vitro motility assay, 50 mM KCl of 24 and a pseudo KM for pCa50: half the N at which the pCa50 of thin filament sliding velocity saturates, in vitro motility assay, 100 mM KCl of 26. The KM: N at half-maximal V(N), in vitro motility assay, control without α-actinin (Figure 5A) in assay [6] was found to be 19.
